Data reported in US20180258158A1 (Bristol-Myers Squibb, published 2018).
Residue numbers refer to the chain shown, from its start. Names may count otherwise.

Key:
[1] = molecular target: T1, mouse serum albumin (MSA), full length (mouse, UniProt P07724 25-608); experiment: direct binding ELISA, coated MSA, anti-His-HRP; set-up: unit not given here
T1 construct: mature; Immobilized on CM5 chip (SPR) or coated on plates (ELISA); also called mouse albumin; murine serum albumin
Target sequence in this assay (P07724 25-608): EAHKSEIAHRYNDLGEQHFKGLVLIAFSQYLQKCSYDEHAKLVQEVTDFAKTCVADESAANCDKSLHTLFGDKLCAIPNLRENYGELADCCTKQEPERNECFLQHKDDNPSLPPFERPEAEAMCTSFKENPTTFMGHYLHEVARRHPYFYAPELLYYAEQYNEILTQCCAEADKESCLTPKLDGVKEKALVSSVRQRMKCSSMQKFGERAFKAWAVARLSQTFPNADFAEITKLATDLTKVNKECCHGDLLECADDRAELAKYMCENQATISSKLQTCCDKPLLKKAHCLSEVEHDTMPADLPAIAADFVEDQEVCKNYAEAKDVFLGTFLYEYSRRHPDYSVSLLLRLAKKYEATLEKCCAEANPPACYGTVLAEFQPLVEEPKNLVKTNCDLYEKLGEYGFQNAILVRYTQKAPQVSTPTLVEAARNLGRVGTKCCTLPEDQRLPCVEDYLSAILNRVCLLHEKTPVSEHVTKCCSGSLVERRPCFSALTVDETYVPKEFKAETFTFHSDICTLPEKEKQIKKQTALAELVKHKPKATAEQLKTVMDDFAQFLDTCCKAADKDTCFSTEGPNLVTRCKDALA

[2] = molecular target: T2, human serum albumin (HSA), full length (human, UniProt P02768 25-609); experiment: not stated; lower end of the range 3-6 nM
T2 construct: mature; Immobilized on CM5 chip (SPR) or coated on plates (ELISA)

[3] = molecular target: T2, human serum albumin (HSA), full length; experiment: not stated; upper end of the range 3-6 nM
[4] = molecular target: T2, human serum albumin (HSA), full length; experiment: SPR, immobilized HSA, 500 nM Adnectin, 25 C
Method: (§1) Measurements were conducted by SPR and ELISA. SPR was conducted as follows. Full length HSA or mouse albumin was immobilized on a Biacore T series CM5 chip at 15 ug/mL in 10 mM acetate buffer (pH 5.0) buffer using standard NHS/EDC coupling, to a surface density of approximately 1000-1100 RU. For off-rate measurements at 25° C., PKE Adnectins were applied as analytes at 500 nM in HBS-P+(0.01 M HEPES pH 7.4, 0.15 M NaCl, 0.005% v/v Surfactant P20) running buffer at a flow rate of 20ul/min for 120 s over the immobilized albumins, followed by 800 s for dissociation. […] Regeneration of the chip surface between cycles was accomplished with two 30 second pulses of 10 mM Glycine, pH 2.0. Kinetic traces of reference-subtracted sensorgrams were fit to a 1:1 binding model for affinity using the Biaevaluation software. Only the dissociation phase was fit for determination of off-rates.

[5] = molecular target: T1, mouse serum albumin (MSA), full length; experiment: SPR, immobilized MSA, 500 nM Adnectin, 25 C
Method: as §1

[6] = molecular target: T2, human serum albumin (HSA), full length; experiment: SPR kinetics, immobilized albumin, 1:1 fit, 37 C
Method: as §1, with “The SPR” for “Measurements were conducted by SPR and ELISA. SPR”, “length human, mouse, rat and cynomolgus monkey serum” for “length HSA or mouse”, “albumin were” for “albumin was”

[7] = molecular target: T1, mouse serum albumin (MSA), full length; experiment: SPR kinetics, immobilized albumin, 1:1 fit, 37 C
Method: as §1, with “The SPR” for “Measurements were conducted by SPR and ELISA. SPR”, “length human, mouse, rat and cynomolgus monkey serum” for “length HSA or mouse”, “albumin were” for “albumin was”

[8] = molecular target: T3, rat serum albumin (rat SA), full length (rat, UniProt P02770 25-608); experiment: SPR kinetics, immobilized albumin, 1:1 fit, 37 C
T3 construct: mature; Immobilized on CM5 chip (SPR); also called RSA
Method: as §1, with “The SPR” for “Measurements were conducted by SPR and ELISA. SPR”, “length human, mouse, rat and cynomolgus monkey serum” for “length HSA or mouse”, “albumin were” for “albumin was”

[9] = molecular target: T4, cynomolgus monkey serum albumin (cynoSA), full length (cynomolgus monkey, UniProt A2V9Z4 25-608); experiment: SPR kinetics, immobilized albumin, 1:1 fit, 37 C
T4 construct: mature; Immobilized on CM5 chip (SPR); the cynoSA experiment used a different Biacore chip; also called CySA
Method: as §1, with “The SPR” for “Measurements were conducted by SPR and ELISA. SPR”, “length human, mouse, rat and cynomolgus monkey serum” for “length HSA or mouse”, “albumin were” for “albumin was”

[10] = molecular target: T2, human serum albumin (HSA), full length; experiment: SPR off-rate, immobilized HSA, 500 nM Adnectin, 25 C
Method: as §1

[11] = molecular target: T1, mouse serum albumin (MSA), full length; experiment: SPR off-rate, immobilized MSA, 500 nM Adnectin, 25 C
Method: as §1

[12] = molecular target: T2, human serum albumin (HSA), full length; experiment: SPR kinetics (Biacore, CM5): albumin immobilised, Adnectin concentration series as analyte, 37 C, 1:1 binding fit; curve Fc=2-1 [panel HSA]
Method: as §1, with “The SPR” for “Measurements were conducted by SPR and ELISA. SPR”, “length human, mouse, rat and cynomolgus monkey serum” for “length HSA or mouse”, “albumin were” for “albumin was”

[13] = molecular target: T1, mouse serum albumin (MSA), full length; experiment: SPR kinetics (Biacore, CM5): albumin immobilised, Adnectin concentration series as analyte, 37 C, 1:1 binding fit; curve Fc=3-1 [panel MSA]
Method: as §1, with “The SPR” for “Measurements were conducted by SPR and ELISA. SPR”, “length human, mouse, rat and cynomolgus monkey serum” for “length HSA or mouse”, “albumin were” for “albumin was”

[14] = molecular target: T3, rat serum albumin (rat SA), full length; experiment: SPR kinetics (Biacore, CM5): albumin immobilised, Adnectin concentration series as analyte, 37 C, 1:1 binding fit; curve Fc=4-1 [panel Rat SA]
Method: as §1, with “The SPR” for “Measurements were conducted by SPR and ELISA. SPR”, “length human, mouse, rat and cynomolgus monkey serum” for “length HSA or mouse”, “albumin were” for “albumin was”

[15] = molecular target: T4, cynomolgus monkey serum albumin …; experiment: SPR kinetics (Biacore, CM5): ligand '15ug/ml CynoSA in Acetate 5.0' immobilised, Adnectin concentration series as analyte, 37 C, 1:1 binding fit; curve Fc=2-1 [panel Cyno SA]
Method: as §1, with “The SPR” for “Measurements were conducted by SPR and ELISA. SPR”, “length human, mouse, rat and cynomolgus monkey serum” for “length HSA or mouse”, “albumin were” for “albumin was”

[16] = molecular target: T2, human serum albumin (HSA), full length; experiment: SPR off-rate ratio to parent ADX_7016_A01, HSA, 25 C
Method: as §1

[17] = molecular target: T1, mouse serum albumin (MSA), full length; experiment: SPR off-rate ratio to parent ADX_7016_A01, MSA, 25 C
Method: as §1

[18] = molecular target: T4, cynomolgus monkey serum albumin …; experiment: SPR kinetics (Biacore, CM5): ligand '15ug/ml CynoSA in Acetate5.0' immobilised, Adnectin concentration series as analyte, 37 C, 1:1 binding model; curve Fc=2-1 [panel Cyno SA]
Method: as §1, with “The SPR” for “Measurements were conducted by SPR and ELISA. SPR”, “length human, mouse, rat and cynomolgus monkey serum” for “length HSA or mouse”, “albumin were” for “albumin was”

T3 sequence (P02770 25-608): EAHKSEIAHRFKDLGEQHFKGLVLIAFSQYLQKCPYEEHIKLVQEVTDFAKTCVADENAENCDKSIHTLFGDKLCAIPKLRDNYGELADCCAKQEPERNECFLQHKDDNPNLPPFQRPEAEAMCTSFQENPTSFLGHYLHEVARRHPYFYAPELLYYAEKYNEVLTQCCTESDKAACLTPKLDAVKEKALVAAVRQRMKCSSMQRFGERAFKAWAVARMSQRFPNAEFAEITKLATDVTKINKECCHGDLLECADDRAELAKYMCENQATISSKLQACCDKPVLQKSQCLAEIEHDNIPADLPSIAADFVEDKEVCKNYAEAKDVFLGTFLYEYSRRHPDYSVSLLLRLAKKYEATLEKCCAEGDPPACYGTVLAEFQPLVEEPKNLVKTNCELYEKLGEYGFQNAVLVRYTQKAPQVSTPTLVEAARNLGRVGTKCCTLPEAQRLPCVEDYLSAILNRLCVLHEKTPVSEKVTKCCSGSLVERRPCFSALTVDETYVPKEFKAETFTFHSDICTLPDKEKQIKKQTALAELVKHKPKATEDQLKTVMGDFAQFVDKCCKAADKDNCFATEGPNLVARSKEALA
T4 sequence (A2V9Z4 25-608): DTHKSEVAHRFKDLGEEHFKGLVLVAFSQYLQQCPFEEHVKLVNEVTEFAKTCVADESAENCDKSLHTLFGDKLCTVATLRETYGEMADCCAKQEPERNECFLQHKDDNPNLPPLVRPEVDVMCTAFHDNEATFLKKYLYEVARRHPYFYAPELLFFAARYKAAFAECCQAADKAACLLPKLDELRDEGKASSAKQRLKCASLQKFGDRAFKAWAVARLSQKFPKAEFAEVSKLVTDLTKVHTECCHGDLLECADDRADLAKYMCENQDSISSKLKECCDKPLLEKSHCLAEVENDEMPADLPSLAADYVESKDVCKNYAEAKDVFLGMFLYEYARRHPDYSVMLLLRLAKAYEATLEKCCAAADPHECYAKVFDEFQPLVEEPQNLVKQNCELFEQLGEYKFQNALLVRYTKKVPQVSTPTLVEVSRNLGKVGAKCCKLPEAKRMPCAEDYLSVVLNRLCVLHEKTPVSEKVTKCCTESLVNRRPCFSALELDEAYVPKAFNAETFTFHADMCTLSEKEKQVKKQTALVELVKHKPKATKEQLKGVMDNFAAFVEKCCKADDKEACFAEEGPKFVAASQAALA
T2 sequence (P02768 25-609): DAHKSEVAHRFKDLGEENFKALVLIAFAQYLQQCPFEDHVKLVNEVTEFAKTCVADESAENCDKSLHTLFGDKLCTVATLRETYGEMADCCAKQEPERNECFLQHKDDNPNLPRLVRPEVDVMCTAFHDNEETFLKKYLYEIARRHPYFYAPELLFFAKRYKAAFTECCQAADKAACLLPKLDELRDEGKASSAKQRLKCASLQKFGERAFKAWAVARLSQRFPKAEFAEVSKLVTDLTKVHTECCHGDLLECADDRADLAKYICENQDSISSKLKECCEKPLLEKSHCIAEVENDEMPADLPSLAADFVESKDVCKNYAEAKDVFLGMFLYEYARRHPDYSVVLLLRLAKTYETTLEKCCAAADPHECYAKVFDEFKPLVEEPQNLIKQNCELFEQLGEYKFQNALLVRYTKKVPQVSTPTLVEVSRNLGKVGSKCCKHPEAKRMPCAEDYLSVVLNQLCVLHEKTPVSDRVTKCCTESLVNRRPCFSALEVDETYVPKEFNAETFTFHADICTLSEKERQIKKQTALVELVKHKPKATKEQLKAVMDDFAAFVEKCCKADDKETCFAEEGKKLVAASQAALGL

B1: ADX_6734_A02 (I43A/Y44E) (designed binder)
chain: MGVSDVPRDLEVVAATPTSLLISWDAPAVTVRYYRITYGREVQKYSDLGPLYAEQEFTVPGSKSTATISGLKPGVDYTITVYAVTGSGESPASSKPISINYRTEIDKPSQHHHHHH
Question: With B1 as the binder, how does the MSA DB ELISA (OD450) Ymax obs [1] read?
Answer: 100

Question: What about the MSA DB ELISA (OD450) Ymin obs [1] of the same binder?
Answer: 3

B2: ADX_7016_A01 (parent PKE2 Adnectin) (designed binder)
chain: B1 chain with A53I, E54Y
notes: N-terminal Met may be cleaved; also called 2629_E06; ADX_2629_E06
Question: With B2 as the binder, how does the Kd [2] read?
Answer: 3 to 6 nM

Question: And the Kd [3]?
Answer: 3 to 6 nM

Question: What about the “HSA Binding (RU)” value [4] of the same binder?
Answer: 54 RU

Question: What about the “MSA Binding (RU)” value [5] of the same binder?
Answer: 95 RU

Question: And the Kd [6]?
Answer: 6.2 nM

Question: And the koff [6]?
Answer: 0.000378 s⁻¹

Question: What about the kon [6] of the same binder?
Answer: 61200 M⁻¹ s⁻¹

Question: What about the Kd [7] of the same binder?
Answer: 2.8 nM

Question: What about the koff [7] of the same binder?
Answer: 0.000668 s⁻¹

Question: And the kon [7]?
Answer: 237000 M⁻¹ s⁻¹

Question: And the Kd [8]?
Answer: 8 nM

Question: What about the koff [8] of the same binder?
Answer: 0.00143 s⁻¹

Question: What about the kon [8] of the same binder?
Answer: 180000 M⁻¹ s⁻¹

Question: And the Kd [9]?
Answer: 4.4 nM

Question: And the koff [9]?
Answer: 0.000391 s⁻¹

Question: And the kon [9]?
Answer: 89400 M⁻¹ s⁻¹

Question: And the koff [10]?
Answer: 0.000269 s⁻¹

Question: And the koff [11]?
Answer: 0.000428 s⁻¹

Question: What about the koff [12] of the same binder?
Answer: 0.000378 s⁻¹

Question: What about the kon [12] of the same binder?
Answer: 61200 M⁻¹ s⁻¹

Question: And the koff [13]?
Answer: 0.000668 s⁻¹

Question: And the kon [13]?
Answer: 237000 M⁻¹ s⁻¹

Question: What about the koff [14] of the same binder?
Answer: 0.00143 s⁻¹

Question: And the kon [14]?
Answer: 180000 M⁻¹ s⁻¹

Question: What about the Kd [15] of the same binder?
Answer: 4.38 nM

Question: What about the koff [15] of the same binder?
Answer: 0.000391 s⁻¹

Question: What about the kon [15] of the same binder?
Answer: 89400 M⁻¹ s⁻¹

B3: ADX_7016_G01 (Y44S) (designed binder)
chain: B1 chain with A53I, E54S
notes: Full His6-tagged entry; also called 6727_G02
Question: Which “HSA Binding (RU)” value [4] does the source give for B3 here?
Answer: 33 RU

Question: What about the “MSA Binding (RU)” value [5] of the same binder?
Answer: 64 RU

Question: What about the Kd [6] of the same binder?
Answer: 83.7 nM

Question: And the koff [6]?
Answer: 0.0032 s⁻¹

Question: And the kon [6]?
Answer: 38200 M⁻¹ s⁻¹

Question: What about the Kd [7] of the same binder?
Answer: 26.8 nM

Question: What about the koff [7] of the same binder?
Answer: 0.00629 s⁻¹

Question: What about the kon [7] of the same binder?
Answer: 235000 M⁻¹ s⁻¹

Question: What about the Kd [8] of the same binder?
Answer: 104 nM

Question: What about the koff [8] of the same binder?
Answer: 0.0346 s⁻¹

Question: What about the kon [8] of the same binder?
Answer: 331000 M⁻¹ s⁻¹

Question: What about the Kd [9] of the same binder?
Answer: 68.1 nM

Question: What about the koff [9] of the same binder?
Answer: 0.00426 s⁻¹

Question: And the kon [9]?
Answer: 62500 M⁻¹ s⁻¹

Question: And the “HSA kd/Parent kd” value [16]?
Answer: 5.6

Question: And the “MSA kd/Parent kd” value [17]?
Answer: 5

Question: What about the koff [10] of the same binder?
Answer: 0.0015 s⁻¹

Question: And the koff [11]?
Answer: 0.00213 s⁻¹

Question: What about the Kd [18] of the same binder?
Answer: 68.1 nM

Question: What about the koff [18] of the same binder?
Answer: 0.00426 s⁻¹

Question: What about the kon [18] of the same binder?
Answer: 62500 M⁻¹ s⁻¹
